This is an account of results in patent publication US20240216484A1 (URSAPHARM ARZNEIMITTEL, published 2024).

B1: HZI 2-05 (Anlec in TBS; lectin batch isolated from bromelain) (other)
chain: MSGLVKLGLWGGNEGTLQDIDGHPTRLTKIVIRSAHAIDALQFDYVEDGKTFAAGQWGGNGGKSDTIEFQPGEYLIAIKGTTGALGAVTNLVRSLTFISNMRTYGPFGLEHGTPFSVPVASGRIVAFYGRFGSLVDAFGIYLMPY
B2: Acm-JRL 2 (Anlec in TBS, Batch 2) (other)
chain: B1 chain
B3: HZI 2-10 (Anlec in TBS; lectin batch isolated from bromelain, protease inhibited with MMTS) (other)
chain: B1 chain
B4: HZI 2-06 (Anlec in dist. water; lectin batch isolated from bromelain) (other)
chain: B1 chain

The experiment addresses SARS-CoV-2 spike protein, extracellular domain (1-1213), recombinant from HEK293 cells (SARS-CoV-2, UniProt P0DTC2 14-1213).
As to B1, the dissociation rate constant (koff) was 0.005 s⁻¹ and the association rate constant (kon) was 133 M⁻¹ s⁻¹.

B2: the koff came out at 0.003 s⁻¹.

As to B3, the koff was 0.003 s⁻¹ and the kon is 286 M⁻¹ s⁻¹.

Take B4: the koff turned out to be 0.008 s⁻¹ and the kon came to 359 M⁻¹ s⁻¹.
